Measurements published in patent publication US20240270866A1 (Alector, published 2024).

T1: mouse SIRPA overexpressed on CHO cells (mouse, UniProt P97797 32-513)
T1 construct: also called CHO-muSIRPA
T1 sequence: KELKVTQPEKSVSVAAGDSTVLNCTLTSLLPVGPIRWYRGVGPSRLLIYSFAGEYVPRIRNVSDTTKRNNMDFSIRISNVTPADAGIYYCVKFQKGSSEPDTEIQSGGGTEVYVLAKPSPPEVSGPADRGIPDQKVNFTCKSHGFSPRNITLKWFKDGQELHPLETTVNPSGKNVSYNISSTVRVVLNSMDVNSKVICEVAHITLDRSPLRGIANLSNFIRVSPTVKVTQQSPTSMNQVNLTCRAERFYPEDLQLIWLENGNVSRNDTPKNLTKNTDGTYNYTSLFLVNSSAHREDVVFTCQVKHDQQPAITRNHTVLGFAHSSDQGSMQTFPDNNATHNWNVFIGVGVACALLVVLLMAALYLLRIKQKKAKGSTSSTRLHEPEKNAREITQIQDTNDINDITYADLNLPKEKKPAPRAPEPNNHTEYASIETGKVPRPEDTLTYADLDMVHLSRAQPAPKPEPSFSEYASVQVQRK

T2: Mouse SIRPA D1 Fc (mouse, UniProt P97797 32-150, limits assumed)
T2 sequence: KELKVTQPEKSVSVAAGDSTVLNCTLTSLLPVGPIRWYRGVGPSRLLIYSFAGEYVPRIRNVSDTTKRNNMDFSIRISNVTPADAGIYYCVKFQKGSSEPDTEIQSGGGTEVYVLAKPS


Tests used:
[1] = molecular target: T3, human SIRPA overexpressed on CHO cells (human, UniProt P78324 31-504); assay: flow, CHO-huSIRPA;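 further: Anti-SIRPA antibodies applied at 1 µg/mL for 1 h on ice, binding read by flow cytometry using a PE-labelled secondary antibody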
T3 construct: also called CHO-huSIRPA
Protocol: Initial characterization of anti-SIRPA antibodies of the present disclosure involved determining their ability to bind cell lines overexpressing human or mouse SIRPA. Cells were harvested, plated at 10⁶/ml in a 96 well plate, washed, and incubated in 100 ul PBS containing 1 ug/ml Mab for 1 hour in ice. Cells were then washed twice and incubated in 100 ul PBS containing 5 ug/ml PE-conjugated secondary antibody for 30 minutes in ice. Cells were washed twice in cold PBS and acquired on a BD FACS Canto. Data analysis and calculation of mean fluorescence intensity (MFI) values or % positive cells was performed with FlowJo® (TreeStar) software version 10.0.7.

[2] = molecular target: T1, mouse SIRPA overexpressed on CHO cells; assay: flow, CHO-muSIRPA;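 on relative MFI: antibody binding measured by flow cytometry: cells stained with 1 ug/ml test antibody for 1 h on ice, detected with PE-labelled secondary antibody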
[3] = molecular target: Human SIRPb D1 Fc (human, UniProt O00241 30-148, limits assumed); assay: ForteBio IgG avid;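 further: antibody IgG captured on AHQ biosensors, then 100 nM Fc-fused SIRP antigen applied for 3 min, followed by 3 min buffer dissociation, kinetics fitted to a 1:1 model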
Sequence of Human SIRPb D1 Fc (O00241 30-148 limits assumed): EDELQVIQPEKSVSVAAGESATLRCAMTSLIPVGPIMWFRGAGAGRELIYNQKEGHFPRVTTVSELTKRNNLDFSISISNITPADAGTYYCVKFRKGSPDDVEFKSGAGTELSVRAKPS

[4] = molecular target: T4, Human SIRPA D1 Fc (human, UniProt P78324 32-137); assay: ForteBio IgG avid;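 further: antibody IgG captured on AHQ biosensors, then 100 nM Fc-fused SIRP antigen applied for 3 min, followed by 3 min buffer dissociation, kinetics fitted to a 1:1 model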
T4 construct: not shown: human IgG1 Fc

[5] = molecular target: T2, Mouse SIRPA D1 Fc; assay: ForteBio IgG avid;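 further: antibody IgG captured on AHQ biosensors, then 100 nM Fc-fused SIRP antigen applied for 3 min, followed by 3 min buffer dissociation, kinetics fitted to a 1:1 model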
[6] = molecular target: T1, mouse SIRPA overexpressed on CHO cells; assay: flow, CHO-muSIRPA; remark: listed apart in the source;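 on relative MFI: antibody binding measured by flow cytometry: cells stained with 1 ug/ml test antibody for 1 h on ice, detected with PE-labelled secondary antibody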

Row | Binder | relative MFI [1] | binding result [2] | binding result [3] | Kd [4] | binding result [5] | relative MFI [6] | Kd [3]
1 | SA-60 (antibody, V domains shown, IgG) VH: EVQLVESGGGLVQPGGSLRLSCAASGFTFSSYSMNWVRQAPGKGLEWVSYISSSSSTIYYADSVKGRFTISRDNAKNSLYLQMNSLRAEDTAVYYCARTHKHFDYGMDVWGQGTTVTVSS VL: EIVLTQSPATLSLSPGERATLSCRASQSVSSYLAWYQQKPGQAPRLLIYDSSNRATGIPARFSGSGSGTDFTLTISSLEPEDFAVYYCQDRSNLPWTFGGGTKVEIK | 4.85 fold over background | no binding (tested: 1 ug/ml) | no binding (tested: 100 nM) | 22.2 nM | no binding (tested: 100 nM) | 0.539 fold over background | –
2 | SA-2 (antibody, V domains shown, IgG) VH: QVQLVESGGGVVQPGRSLRLSCAASGFTFSSYGMHWVRQAPGKGLEWVAVISYDGSNKYYADSVKGRFTISRDNSKNTLYLQMNSLRAEDTAVYYCAKDLGGGSGGYATSDYYYGMDVWGQGTTVTVSS VL: not shown | 98.3 fold over background | no binding (tested: 1 ug/ml) | no binding (tested: 100 nM) | 2.44 nM | no binding (tested: 100 nM) | 0.527 fold over background | –
3 | SA-34 (antibody, V domains shown, IgG) VH: QVQLVQSGAEVKKPGASVKVSCKASGYTFTNYGISWVRQAPGQGLEWMGWISAYNGNTNYAQKLQGRVTMTTDTSTSTAYMELRSLRSDDTAVYYCARDVYSSYSYWGQGTLVTVSS VL: DIQLTQSPSTLSASVGDRVTITCRASQSISSWLAWYQQKPGKAPKLLIYDASSLESGVPSRFSGSGSGTEFTLTISSLQPDDFATYYCQQYELLPPTFGGGTKVEIK | 0.806 fold over background | no binding (tested: 1 ug/ml) | no binding (tested: 100 nM) | 26.8 nM | no binding (tested: 100 nM) | 0.613 fold over background | –
4 | SA-59 (antibody, V domains shown, IgG) VH: QVQLQESGPGLVKPSETLSLTCTVSGGSISSYYWSWIRQPPGKGLEWIGSIYYSGSTNYNPSLKSRVTISVDTSKNQFSLKLSSVTAADTAVYYCARSGGSYSYLDVWGQGTMVTVSS VL: not shown | 0.63 fold over background | no binding (tested: 1 ug/ml) | no binding (tested: 100 nM) | 23.6 nM | no binding (tested: 100 nM) | 0.53 fold over background | –
5 | SA-38 (antibody, V domains shown, IgG) VH: QVQLQESGPGLVKPSQTLSLTCTVSGGSISSGGYYWSWIRQHPGKGLEWIGSIYYSGSTYYNPSLKSRVTISVDTSKNQFSLKLSSVTAADTAVYYCAREGAYSLYVNWFDPWGQGTLVTVSS VL: EIVMTQSPATLSVSPGERATLSCRASQSVSSSLAWYQQKPGQAPRLLIFGASTRATGIPARFSGSGSGTEFTLTISSLQSEDFAVYYCQQYDNYPPITFGGGTKVEIK | 2.96 fold over background | no binding (tested: 1 ug/ml) | no binding (tested: 100 nM) | 3.81 nM | no binding (tested: 100 nM) | 0.458 fold over background | –
6 | SA-43 (antibody, V domains shown, IgG) VH: QLQLQESGPGLVKPSETLSLTCTVSGGSISSSSYAWGWIRQPPGKGLEWIGSIYYSGSTYYNPSLKSRVTISVDTSKNQFSLKLSSVTAADTAVYYCARELETSRHDIWGQGTTVTVSS VL: DIQMTQSPSSVSASVGDRVTITCRASQGISSWLAWYQQKPGKAPKLLIYAASSLQSGVPSRFSGSGSGTDFTLTISSLQPEDFATYYCQQASAFPITFGGGTKVEIK | 0.56 fold over background | no binding (tested: 1 ug/ml) | no binding (tested: 100 nM) | 10.5 nM | no binding (tested: 100 nM) | 0.479 fold over background | –

The remaining binders from weak to strong by Kd [4], led by results:

Row | relative MFI [1] | binding result [2] | binding result [3] | Kd [4] | binding result [5] | relative MFI [6] | Kd [3] | Binder
7 | 1.47 fold over background | no binding (tested: 1 ug/ml) | no binding (tested: 100 nM) | 20 nM | no binding (tested: 100 nM) | 0.545 fold over background | – | SA-1 (antibody, V domains shown, IgG) VH: EVQLVESGGGLVQPGRSLRLSCAASGFTFGDYAMHWVRQAPGKGLEWVSGISWNSGSIGYADSVKGRFTISRDNAKNSLYLQMNSLRAEDTALYYCAKDAPYVGLDLWGRGTLVTVSS VL: not shown
8 | 7.09 fold over background | no binding (tested: 1 ug/ml) | no binding (tested: 100 nM) | 16.5 nM | no binding (tested: 100 nM) | 0.557 fold over background | – | SA-62 (antibody, V domains shown, IgG) VH: EVQLVESGGGLVQPGGSLRLSCAASGFTFSSYSMNWVRQAPGKGLEWVSYISSSSSTIYYADSVKGRFTISRDNAKNSLYLQMNSLRAEDTAVYYCARTHKHFDYGMDVWGQGTTVTVSS VL: DIQMTQSPSSLSASVGDRVTITCQASQDIANYLNWYQQKPGKAPKLLIYDASNLETGVPSRFSGSGSGTDFTFTISSLQPEDIATYYCQQYVNYWTFGGGTKVEIK
9 | 11.3 fold over background | no binding (tested: 1 ug/ml) | no binding (tested: 100 nM) | 15.4 nM | no binding (tested: 100 nM) | 0.479 fold over background | – | SA-47 (antibody, V domains shown, IgG) VH: QVQLVQSGAEVKKPGASVKVSCKASGYTFTSYYMHWVRQAPGQGLEWMGIINPSGGSTSYAQKFQGRVTMTRDTSTSTVYMELSSLRSEDTAVYYCAREVGVSGWEITYGMDVWGQGTTVTVSS VL: DIQMTQSPSSVSASVGDRVTITCRASQGISSWLAWYQQKPGKAPKLLIYAASSLQSGVPSRFSGSGSGTDFTLTISSLQPEDFATYYCQQISSYPITFGGGTKVEIK
10 | 48.2 fold over background | no binding (tested: 1 ug/ml) | no binding (tested: 100 nM) | 10.2 nM | no binding (tested: 100 nM) | 0.491 fold over background | – | SA-35 (antibody, V domains shown, IgG) VH: QVQLVQSGAEVKKPGASVKVSCKASGYTFTSYYMHWVRQAPGQGLEWMGIINPSGGSTSYAQKFQGRVTMTRDTSTSTVYMELSSLRSEDTAVYYCAREAGYDIKGFDYWGQGTLVTVSS VL: DIQMTQSPSTLSASVGDRVTITCRASQSISSWLAWYQQKPGKAPKLLIYKASSLESGVPSRFSGSGSGTEFTLTISSLQPDDFATYYCQQYGSFPLTFGGGTKVEIK
11 | 1.27 fold over background | no binding (tested: 1 ug/ml) | no binding (tested: 100 nM) | 10.2 nM | no binding (tested: 100 nM) | 0.464 fold over background | – | SA-37 (antibody, V domains shown, IgG) VH: QVQLQESGPGLVKPSQTLSLTCTVSGGSISSGGYYWSWIRQHPGKGLEWIGSIYYSGSTYYNPSLKSRVTISVDTSKNQFSLKLSSVTAADTAVYYCAREGAYSLYVNWFDPWGQGTLVTVSS VL: EIVLTQSPGTLSLSPGERATLSCRASQSVSSSFLAWYQQKPGQAPRLLIYGASSRATGIPDRFSGSGSGTDFTLTISRLEPEDFAVYYCQQYDGVPITFGGGTKVEIK
12 | 27.9 fold over background | no binding (tested: 1 ug/ml) | no binding (tested: 100 nM) | 8.67 nM | no binding (tested: 100 nM) | 0.574 fold over background | – | SA-36 (antibody, V domains shown, IgG) VH: not shown VL: EIVLTQSPATLSLSPGERATITCQASQDISSYLAWYQQKPGQAPRLLIYDASNRATGIPARFSGSGSGTDFTLTISSLEPEDFAVYYCQQRTHYPWTFGGGTKVEIK
13 | 50.8 fold over background | no binding (tested: 1 ug/ml) | no binding (tested: 100 nM) | 4.31 nM | no binding (tested: 100 nM) | 0.738 fold over background | – | SA-58 (antibody, V domains shown, IgG) VH: QLQLQESGPGLVKPSETLSLTCTVSGGSISSSSYAWGWIRQPPGKGLEWIGSIYYSGSTYYNPSLKSRVTISVDTSKNQFSLKLSSVTAADTAVYYCARLPMGCGSGMDVWGQGTTVTVSS VL: not shown
14 | 1.47 fold over background | no binding (tested: 1 ug/ml) | – | 3.62 nM | no binding (tested: 100 nM) | 0.571 fold over background | 22.3 nM | SA-39 (antibody, V domains shown, IgG) VH: QVQLVQSGAEVKKPGASVKVSCKASGYTFTSYYMVWVRQAPGQGLEWMGIINPSGGSTSYAQKFQGRVTMTRDTSTSTVYMELSSLRSEDTAVYYCAREGGYGYRAYPYGMDVWGQGTTVTVSS VL: DIQMTQSPSSLSASVGDRVTITCQASQDISNSLNWYQQKPGKAPKLLIYDASNLETGVPSRFSGSRSGTDFTFTISSLQPEDIATYYCQQVIILPLTFGGGTKVEIK
